# Measured values published in patent US20260151389A1, “Use of Tetramethylpyrazine Nitrone Derivatives In The Treatment of Ischemic Stroke” (GUANGZHOU MAGPIE PHARMACEUTICALS CO., L.T.D., priority 2021, published 2026).
# System: patients with acute ischemic stroke
# Assay: multicenter, randomized, double-blind, parallel clinical trial in acute ischemic stroke
# Type: in vivo, human
# Settings: thrombolytic group
# Description: The present invention adopts a multicenter, randomized, double-blind, parallel trial clinical research design. The patients with acute ischemic stroke included in the clinical trial-center as subjects (all signed informed consent forms) were divided into non-thrombolytic group and thrombolytic group. The non-thrombolytic group consists of the saline group and the TBN group. The thrombolytic group consists of the t-PA group and the combination group of TBN+t-PA.
# Subjects of the tests: Patients diagnosed with acute ischemic stroke were selected by clinical trial centers based on the diagnostic criteria of “Chinese Guidelines for the Diagnosis and Treatment of Acute Ischemic Stroke (2018)”.
# Administration method: TBN (1400 mg) is dissolved in a sodium chloride injection bag (specification: 100 mL) and administered intravenously for 30 minutes. Dose of t-PA: 0.9 mg/Kg/dose; usage: added to physiological saline, 10% of the dose is administered via injected intravenous injection immediately within 1-2 minutes, and the remaining 90% is administered via intravenous drop infusion within 60 minutes. t-PA is administered only once on the first day of acute ischemic stroke. The medication schedule of TBN: D1-D7 administered twice a day, with an interval of 12 hours, for 7 consecutive days.
molecule,measurement,setting,value
"t-PA: tissue type plasminogen activator ateplase (t-PA), thrombolytic drug (protein, UniProt P00750 36-562, looked up) Tissue-type plasminogen …: SYQVICRDEKTQMIYQQHQSWLRPVLRSNRVEYCWCNSGRAQCHSVPVKSCSEPRCFNGGTCQQALYFSDFVCQCPEGFAGKCCEIDTRATCYEDQGISYRGTWSTAESGAECTNWNSSALAQKPYSGRRPDAIRLGLGNHNYCRNPDRDSKPWCYVFKAGKYSSEFCSTPACSEGNSDCYFGNGSAYRGTHSLTESGASCLPWNSMILIGKVYTAQNPSAQALGLGKHNYCRNPDGDAKPWCHVLKNRRLTWEYCDVPSCSTCGLRQYSQPQFRIKGGLFADIASHPWQAAIFAKHRRSPGERFLCGGILISSCWILSAAHCFQERFPPHHLTVILGRTYRVVPGEEEQKFEVEKYIVHKEFDDDTYDNDIALLQLKSDSSRCAQESSVVRTVCLPPADLQLPDWTECELSGYGKHEALSPFYSERLKEAHVRLYPSSRCTSQHLLNRTVTDNMLCAGDTRSGGPQANLHDACQGDSGGPLVCLNDGRMTLVGIISWGLGCGQKDVPGVYTKVTNYLDWIRDNMRP",efficacy after 90 days compared with after 30 days of treatment,,no significant difference in efficacy
same,Lsmeans mRS,90th day,1.61
